The experiment deals with T1, human FcγRIIb extracellular domain with C-terminal His tag (human, UniProt P31994 43-217).
T1 construct: extracellular domain; also called FcgRIIb; 2b; not shown: His tag attached to the C terminus
T1 sequence (looked up): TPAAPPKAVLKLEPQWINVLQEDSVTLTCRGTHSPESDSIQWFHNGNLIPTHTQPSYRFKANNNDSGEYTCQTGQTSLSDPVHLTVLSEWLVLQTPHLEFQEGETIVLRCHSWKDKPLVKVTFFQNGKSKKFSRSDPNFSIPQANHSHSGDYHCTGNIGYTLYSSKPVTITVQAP
Nature of the experiment: SPR (Biacore T100), antibody captured on antigen peptide chip, FcγRIIb as analyte; relative binding. As to the method:
Analysis of interaction between objective antibody and the FcγR was carried out using Biacore T100 (GE Healthcare). HBS-EP+ (GE Healthcare) was used as the running buffer, and the measurement temperature was set to 25° C. Chips produced by immobilizing the antigen peptide by the amine coupling method to a Series S Sencor Chip CM5 (GE Healthcare), or alternatively, chips produced by allowing preliminarily biotinylated antigen peptides to interact with and immobilize onto a Series S Sensor Chip SA (certified) (GE Healthcare) were used. Antibodies of interest were captured onto an antigen peptide-immobilized chip, and allowed to interact to each FcγR diluted with running buffer. To regenerate and repeatedly use the chip, the antibodies captured on the chip were washed off by reacting 10 mM glycine-HCl, pH 1.5.

B1: GpH7-B3 variant T335_08L/GpL16-k0 (Ho Ab) (antibody, human IgG1, kappa)
heavy: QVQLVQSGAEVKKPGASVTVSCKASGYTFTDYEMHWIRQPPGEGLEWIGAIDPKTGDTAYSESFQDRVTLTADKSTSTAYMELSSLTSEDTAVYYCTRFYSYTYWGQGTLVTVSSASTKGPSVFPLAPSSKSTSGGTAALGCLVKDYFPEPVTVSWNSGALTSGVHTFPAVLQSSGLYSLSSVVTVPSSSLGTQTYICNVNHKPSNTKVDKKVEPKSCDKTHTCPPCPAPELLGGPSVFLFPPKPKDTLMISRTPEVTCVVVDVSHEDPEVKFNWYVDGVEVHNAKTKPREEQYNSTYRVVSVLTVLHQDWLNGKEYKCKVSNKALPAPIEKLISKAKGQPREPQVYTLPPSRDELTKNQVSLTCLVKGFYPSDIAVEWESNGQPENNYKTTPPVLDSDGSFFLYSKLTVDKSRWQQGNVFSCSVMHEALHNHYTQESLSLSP
light: DIVMTQSPLSLPVTPGEPASISCQASESLVHSNRNTYLHWYLQKPGQSPQLLIYKVSNRFSGVPDRFSGSGSGTDFTLKISRVEAEDVGVYYCSQNTHVPPTFGQGTKVEIERTVAAPSVFIFPPSDEQLKSGTASVVCLLNNFYPREAKVQWKVDNALQSGNSQESVTEQDSKDSTYSLSSTLTLSKADYEKHKVYACEVTHQGLSSPVTKSFNRGEC
notes: Anti-glypican-3 IgG1; mutation in both H chains; also called T335L homodimerized antibody
For B1, the Ho/Con_2b was 106 % of control GpH7-B3/GpL16-k0 (=100).

B2: GpH7-B3 variant T335_04F/GpL16-k0 (Ho Ab) (antibody, human IgG1, kappa)
heavy: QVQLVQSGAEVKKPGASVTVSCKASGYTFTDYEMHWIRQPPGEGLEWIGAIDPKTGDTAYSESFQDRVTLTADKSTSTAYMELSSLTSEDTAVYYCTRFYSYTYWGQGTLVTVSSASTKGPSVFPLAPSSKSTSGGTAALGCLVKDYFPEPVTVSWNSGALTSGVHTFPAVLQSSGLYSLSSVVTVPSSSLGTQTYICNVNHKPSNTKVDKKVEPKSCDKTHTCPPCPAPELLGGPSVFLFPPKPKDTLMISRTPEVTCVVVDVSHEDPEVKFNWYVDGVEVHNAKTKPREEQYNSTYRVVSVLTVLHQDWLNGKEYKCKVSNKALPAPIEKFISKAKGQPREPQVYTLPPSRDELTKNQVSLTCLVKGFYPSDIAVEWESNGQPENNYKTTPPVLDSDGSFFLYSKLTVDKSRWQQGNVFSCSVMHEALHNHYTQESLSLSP
light: DIVMTQSPLSLPVTPGEPASISCQASESLVHSNRNTYLHWYLQKPGQSPQLLIYKVSNRFSGVPDRFSGSGSGTDFTLKISRVEAEDVGVYYCSQNTHVPPTFGQGTKVEIERTVAAPSVFIFPPSDEQLKSGTASVVCLLNNFYPREAKVQWKVDNALQSGNSQESVTEQDSKDSTYSLSSTLTLSKADYEKHKVYACEVTHQGLSSPVTKSFNRGEC
notes: Anti-glypican-3 IgG1; mutation in both H chains; also called T335F homodimerized antibody
For the molecule B2, the Ho/Con_2b is 107 % of control GpH7-B3/GpL16-k0 (=100).

B3: GpH7-B3 variant S239_08L/GpL16-k0 (Ho Ab) (antibody, human IgG1, kappa)
heavy: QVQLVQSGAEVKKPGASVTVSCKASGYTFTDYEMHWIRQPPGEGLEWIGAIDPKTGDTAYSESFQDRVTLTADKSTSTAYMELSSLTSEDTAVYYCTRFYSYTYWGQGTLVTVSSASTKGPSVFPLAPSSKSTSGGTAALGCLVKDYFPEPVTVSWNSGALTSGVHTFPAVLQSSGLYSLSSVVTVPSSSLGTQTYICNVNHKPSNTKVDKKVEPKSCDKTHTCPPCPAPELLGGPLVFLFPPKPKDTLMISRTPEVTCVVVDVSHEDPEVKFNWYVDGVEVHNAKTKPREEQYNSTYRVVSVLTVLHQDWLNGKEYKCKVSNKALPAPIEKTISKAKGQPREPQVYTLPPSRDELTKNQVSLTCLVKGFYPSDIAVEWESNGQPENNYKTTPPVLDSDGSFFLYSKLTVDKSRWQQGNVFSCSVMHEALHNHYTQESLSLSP
light: DIVMTQSPLSLPVTPGEPASISCQASESLVHSNRNTYLHWYLQKPGQSPQLLIYKVSNRFSGVPDRFSGSGSGTDFTLKISRVEAEDVGVYYCSQNTHVPPTFGQGTKVEIERTVAAPSVFIFPPSDEQLKSGTASVVCLLNNFYPREAKVQWKVDNALQSGNSQESVTEQDSKDSTYSLSSTLTLSKADYEKHKVYACEVTHQGLSSPVTKSFNRGEC
notes: Anti-glypican-3 IgG1; mutation in both H chains; also called S239L homodimerized antibody
Take B3: the Ho/Con_2b is 142 % of control GpH7-B3/GpL16-k0 (=100).

B4: GpH7-B3 variant S298_08L/GpL16-k0 (Ho Ab) (antibody, human IgG1, kappa)
heavy: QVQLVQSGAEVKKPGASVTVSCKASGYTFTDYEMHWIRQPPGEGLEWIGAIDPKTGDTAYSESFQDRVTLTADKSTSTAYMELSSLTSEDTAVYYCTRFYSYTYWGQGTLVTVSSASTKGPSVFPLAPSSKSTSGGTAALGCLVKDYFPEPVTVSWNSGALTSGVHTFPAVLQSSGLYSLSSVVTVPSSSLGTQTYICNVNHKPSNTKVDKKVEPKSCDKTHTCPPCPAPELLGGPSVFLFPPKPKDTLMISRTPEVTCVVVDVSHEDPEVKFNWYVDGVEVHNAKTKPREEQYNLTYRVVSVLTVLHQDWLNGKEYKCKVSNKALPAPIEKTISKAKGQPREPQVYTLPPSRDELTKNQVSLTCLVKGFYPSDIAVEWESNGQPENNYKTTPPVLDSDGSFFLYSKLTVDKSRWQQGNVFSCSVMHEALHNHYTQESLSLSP
light: DIVMTQSPLSLPVTPGEPASISCQASESLVHSNRNTYLHWYLQKPGQSPQLLIYKVSNRFSGVPDRFSGSGSGTDFTLKISRVEAEDVGVYYCSQNTHVPPTFGQGTKVEIERTVAAPSVFIFPPSDEQLKSGTASVVCLLNNFYPREAKVQWKVDNALQSGNSQESVTEQDSKDSTYSLSSTLTLSKADYEKHKVYACEVTHQGLSSPVTKSFNRGEC
notes: Anti-glypican-3 IgG1; mutation in both H chains; also called S298L homodimerized antibody
On to B4, for which the Ho/Con_2b was 115 % of control GpH7-B3/GpL16-k0 (=100).

B5: GpH7-B3 variant S267_10E/GpL16-k0 (Ho Ab) (antibody, human IgG1, kappa)
heavy: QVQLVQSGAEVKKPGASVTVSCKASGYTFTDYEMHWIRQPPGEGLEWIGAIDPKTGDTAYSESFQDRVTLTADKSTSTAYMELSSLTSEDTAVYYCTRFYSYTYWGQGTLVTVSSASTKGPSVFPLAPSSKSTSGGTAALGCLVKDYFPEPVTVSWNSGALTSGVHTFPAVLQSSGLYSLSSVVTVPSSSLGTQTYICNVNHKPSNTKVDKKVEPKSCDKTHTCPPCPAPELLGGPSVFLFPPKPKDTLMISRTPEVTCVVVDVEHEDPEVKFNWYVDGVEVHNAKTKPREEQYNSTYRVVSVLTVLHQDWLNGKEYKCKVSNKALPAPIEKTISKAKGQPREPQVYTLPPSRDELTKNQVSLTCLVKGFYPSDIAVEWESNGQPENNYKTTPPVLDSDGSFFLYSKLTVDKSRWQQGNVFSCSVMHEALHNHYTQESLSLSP
light: DIVMTQSPLSLPVTPGEPASISCQASESLVHSNRNTYLHWYLQKPGQSPQLLIYKVSNRFSGVPDRFSGSGSGTDFTLKISRVEAEDVGVYYCSQNTHVPPTFGQGTKVEIERTVAAPSVFIFPPSDEQLKSGTASVVCLLNNFYPREAKVQWKVDNALQSGNSQESVTEQDSKDSTYSLSSTLTLSKADYEKHKVYACEVTHQGLSSPVTKSFNRGEC
notes: Anti-glypican-3 IgG1; mutation in both H chains; also called S267E homodimerized antibody
Take B5: the Ho/Con_2b was 396 % of control GpH7-B3/GpL16-k0 (=100).

B6: GpH7-B3 variant S267_08L/GpL16-k0 (Ho Ab) (antibody, human IgG1, kappa)
heavy: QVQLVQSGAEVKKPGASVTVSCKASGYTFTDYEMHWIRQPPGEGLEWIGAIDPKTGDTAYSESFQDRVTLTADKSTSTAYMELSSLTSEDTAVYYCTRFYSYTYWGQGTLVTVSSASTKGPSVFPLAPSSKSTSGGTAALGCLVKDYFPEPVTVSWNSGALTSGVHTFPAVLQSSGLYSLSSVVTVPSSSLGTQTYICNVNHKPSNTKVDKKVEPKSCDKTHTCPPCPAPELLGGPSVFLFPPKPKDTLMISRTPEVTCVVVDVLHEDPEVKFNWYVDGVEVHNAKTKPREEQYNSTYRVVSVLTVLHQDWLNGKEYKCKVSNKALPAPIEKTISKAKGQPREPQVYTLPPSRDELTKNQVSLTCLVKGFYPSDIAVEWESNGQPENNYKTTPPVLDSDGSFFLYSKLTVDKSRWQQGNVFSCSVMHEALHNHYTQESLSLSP
light: DIVMTQSPLSLPVTPGEPASISCQASESLVHSNRNTYLHWYLQKPGQSPQLLIYKVSNRFSGVPDRFSGSGSGTDFTLKISRVEAEDVGVYYCSQNTHVPPTFGQGTKVEIERTVAAPSVFIFPPSDEQLKSGTASVVCLLNNFYPREAKVQWKVDNALQSGNSQESVTEQDSKDSTYSLSSTLTLSKADYEKHKVYACEVTHQGLSSPVTKSFNRGEC
notes: Anti-glypican-3 IgG1; mutation in both H chains; also called S267L homodimerized antibody
B6: the Ho/Con_2b was 109 % of control GpH7-B3/GpL16-k0 (=100).

B7: GpH7-B3 variant S337_09D/GpL16-k0 (Ho Ab) (antibody, human IgG1, kappa)
heavy: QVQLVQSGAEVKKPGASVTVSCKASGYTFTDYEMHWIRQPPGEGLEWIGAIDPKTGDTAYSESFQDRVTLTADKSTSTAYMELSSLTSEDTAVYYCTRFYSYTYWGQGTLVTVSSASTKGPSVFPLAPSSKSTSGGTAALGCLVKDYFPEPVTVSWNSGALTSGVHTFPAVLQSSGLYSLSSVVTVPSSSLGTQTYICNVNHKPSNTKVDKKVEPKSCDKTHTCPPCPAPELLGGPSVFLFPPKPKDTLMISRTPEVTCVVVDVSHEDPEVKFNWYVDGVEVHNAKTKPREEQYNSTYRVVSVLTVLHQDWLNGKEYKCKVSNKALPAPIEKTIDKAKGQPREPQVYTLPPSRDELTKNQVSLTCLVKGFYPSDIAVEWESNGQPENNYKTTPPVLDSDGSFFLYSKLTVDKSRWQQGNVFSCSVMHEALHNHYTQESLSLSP
light: DIVMTQSPLSLPVTPGEPASISCQASESLVHSNRNTYLHWYLQKPGQSPQLLIYKVSNRFSGVPDRFSGSGSGTDFTLKISRVEAEDVGVYYCSQNTHVPPTFGQGTKVEIERTVAAPSVFIFPPSDEQLKSGTASVVCLLNNFYPREAKVQWKVDNALQSGNSQESVTEQDSKDSTYSLSSTLTLSKADYEKHKVYACEVTHQGLSSPVTKSFNRGEC
notes: Anti-glypican-3 IgG1; mutation in both H chains; also called S337D homodimerized antibody
On to B7, for which the Ho/Con_2b is 116 % of control GpH7-B3/GpL16-k0 (=100).

B8: GpH7-B3 variant S239_09D/GpL16-k0 (Ho Ab) (antibody, human IgG1, kappa)
heavy: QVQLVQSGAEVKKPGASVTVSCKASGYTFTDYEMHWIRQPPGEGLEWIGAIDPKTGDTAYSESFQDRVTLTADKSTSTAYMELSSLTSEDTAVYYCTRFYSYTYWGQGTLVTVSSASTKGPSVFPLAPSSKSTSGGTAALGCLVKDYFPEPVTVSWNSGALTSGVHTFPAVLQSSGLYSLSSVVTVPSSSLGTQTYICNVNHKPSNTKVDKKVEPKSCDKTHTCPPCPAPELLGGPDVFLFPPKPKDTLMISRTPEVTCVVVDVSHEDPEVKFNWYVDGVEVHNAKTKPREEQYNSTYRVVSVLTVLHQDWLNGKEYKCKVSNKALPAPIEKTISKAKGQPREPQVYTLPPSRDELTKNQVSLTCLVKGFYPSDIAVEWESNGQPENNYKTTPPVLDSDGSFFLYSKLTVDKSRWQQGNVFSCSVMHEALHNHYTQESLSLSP
light: DIVMTQSPLSLPVTPGEPASISCQASESLVHSNRNTYLHWYLQKPGQSPQLLIYKVSNRFSGVPDRFSGSGSGTDFTLKISRVEAEDVGVYYCSQNTHVPPTFGQGTKVEIERTVAAPSVFIFPPSDEQLKSGTASVVCLLNNFYPREAKVQWKVDNALQSGNSQESVTEQDSKDSTYSLSSTLTLSKADYEKHKVYACEVTHQGLSSPVTKSFNRGEC
notes: Anti-glypican-3 IgG1; mutation in both H chains; also called S239D homodimerized antibody
In the case of B8, the Ho/Con_2b is 224 % of control GpH7-B3/GpL16-k0 (=100).

B9: GpH7-B3 variant S239_18N/GpL16-k0 (Ho Ab) (antibody, human IgG1, kappa)
heavy: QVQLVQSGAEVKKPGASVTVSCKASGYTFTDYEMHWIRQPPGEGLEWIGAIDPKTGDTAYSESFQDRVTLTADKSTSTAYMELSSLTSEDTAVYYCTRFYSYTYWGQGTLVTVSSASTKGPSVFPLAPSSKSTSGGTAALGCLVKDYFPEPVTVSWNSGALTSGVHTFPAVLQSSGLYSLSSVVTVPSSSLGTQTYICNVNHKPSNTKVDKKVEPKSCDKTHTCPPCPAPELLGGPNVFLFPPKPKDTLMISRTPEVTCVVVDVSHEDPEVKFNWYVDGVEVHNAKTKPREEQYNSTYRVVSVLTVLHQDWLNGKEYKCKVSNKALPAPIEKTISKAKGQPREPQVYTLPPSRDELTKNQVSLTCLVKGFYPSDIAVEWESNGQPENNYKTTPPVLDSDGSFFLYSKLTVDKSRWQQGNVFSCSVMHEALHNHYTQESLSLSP
light: DIVMTQSPLSLPVTPGEPASISCQASESLVHSNRNTYLHWYLQKPGQSPQLLIYKVSNRFSGVPDRFSGSGSGTDFTLKISRVEAEDVGVYYCSQNTHVPPTFGQGTKVEIERTVAAPSVFIFPPSDEQLKSGTASVVCLLNNFYPREAKVQWKVDNALQSGNSQESVTEQDSKDSTYSLSSTLTLSKADYEKHKVYACEVTHQGLSSPVTKSFNRGEC
notes: Anti-glypican-3 IgG1; mutation in both H chains; also called S239N homodimerized antibody
Consider B9, for which the Ho/Con_2b was 125 % of control GpH7-B3/GpL16-k0 (=100).

B10: GpH7-B3 variant S267_02A/GpL16-k0 (Ho Ab) (antibody, human IgG1, kappa)
heavy: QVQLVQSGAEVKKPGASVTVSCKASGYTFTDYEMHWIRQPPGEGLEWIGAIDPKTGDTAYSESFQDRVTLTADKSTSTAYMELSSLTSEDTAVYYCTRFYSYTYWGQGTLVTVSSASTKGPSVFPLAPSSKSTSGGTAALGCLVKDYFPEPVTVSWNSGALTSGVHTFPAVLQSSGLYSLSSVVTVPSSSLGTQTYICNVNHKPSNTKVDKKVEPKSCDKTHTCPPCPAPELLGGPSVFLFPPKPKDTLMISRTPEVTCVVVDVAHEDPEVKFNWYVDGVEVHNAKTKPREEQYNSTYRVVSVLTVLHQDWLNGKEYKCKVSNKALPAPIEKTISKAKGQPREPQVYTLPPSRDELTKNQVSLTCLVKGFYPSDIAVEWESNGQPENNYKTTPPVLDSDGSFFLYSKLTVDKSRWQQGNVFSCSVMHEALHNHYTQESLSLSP
light: DIVMTQSPLSLPVTPGEPASISCQASESLVHSNRNTYLHWYLQKPGQSPQLLIYKVSNRFSGVPDRFSGSGSGTDFTLKISRVEAEDVGVYYCSQNTHVPPTFGQGTKVEIERTVAAPSVFIFPPSDEQLKSGTASVVCLLNNFYPREAKVQWKVDNALQSGNSQESVTEQDSKDSTYSLSSTLTLSKADYEKHKVYACEVTHQGLSSPVTKSFNRGEC
notes: Anti-glypican-3 IgG1; mutation in both H chains; also called S267A homodimerized antibody
For B10, the Ho/Con_2b was 274 % of control GpH7-B3/GpL16-k0 (=100).

(Values after patent US20150344570A1 (published 2015).)
